Experiment [1] concerns the target T1, human serum albumin (human, UniProt P02768 25-609).
T1 construct: also called HSA
Nature of the experiment: SPR, single cycle kinetics, pH 5.5. (In general: Surface plasmon resonance follows binding to a sensor surface in real time, without labels.)

Experiment [2] concerns the target T2, rhesus serum albumin (rhesus, UniProt Q28522 17-600).
T2 construct: also called RhSA
Nature of the experiment: SPR, single cycle kinetics, pH 5.5.

Experiment [3] addresses T3, rat serum albumin (rat, UniProt P02770 25-608).
T3 construct: also called RSA
Nature of the experiment: SPR, single cycle kinetics, pH 5.5.

Experiment [4] deals with T1, human serum albumin. Nature of the experiment: SPR, single cycle kinetics, pH 7.4.
Experiment [5] concerns the target T2, rhesus serum albumin. Nature of the experiment: SPR, single cycle kinetics, pH 7.4.
Experiment [6] addresses T3, rat serum albumin. As to the kind of experiment: SPR, single cycle kinetics, pH 7.4.
For experiment [7], the target named is T4, mouse serum albumin (mouse, UniProt P07724 25-608).
T4 construct: also called MSA
Nature of the experiment: SPR, single cycle kinetics, pH 7.4.

Experiment [8] deals with T1, human serum albumin. As to the kind of experiment: SPR, single cycle kinetics, pH 5.5. The source holds these as a separate data set.
Experiment [9] addresses T2, rhesus serum albumin. Nature of the experiment: SPR, single cycle kinetics, pH 5.5. This is another data set of the same source.
Experiment [10] deals with T3, rat serum albumin. As to the kind of experiment: SPR, single cycle kinetics, pH 5.5. This is another data set of the same source.
Experiment [11] addresses T1, human serum albumin. As to the kind of experiment: SPR, single cycle kinetics, pH 7.4. This is another data set of the same source.
Experiment [12] has as its target T2, rhesus serum albumin. As to the kind of experiment: SPR, single cycle kinetics, pH 7.4. This is another data set of the same source.
Experiment [13] has as its target T3, rat serum albumin. Nature of the experiment: SPR, single cycle kinetics, pH 7.4. The source holds these as a separate data set.
Experiment [14] has as its target T4, mouse serum albumin. Nature of the experiment: ITC, pH 7.4. A general note: ITC needs no label: the signal is the heat of the interaction.
Another experiment addresses T5, HSA domain 2 (DII) (human, UniProt P02768 213-409).
T5 construct: domain: DII
As to the kind of experiment: SPR, 100 nM VHH over an amine-coupled DII surface.

Experiment [15] addresses T1, human serum albumin. As to the kind of experiment: SPR, pH 7.4; complex binding, data not analyzable.
For experiment [16], the target named is T2, rhesus serum albumin. As to the kind of experiment: SPR, pH 7.4; complex binding, data not analyzable.
Experiment [17] concerns the target T3, rat serum albumin. As to the kind of experiment: SPR, pH 7.4; complex binding, data not analyzable.

T4 sequence (P07724 25-608 limits assumed): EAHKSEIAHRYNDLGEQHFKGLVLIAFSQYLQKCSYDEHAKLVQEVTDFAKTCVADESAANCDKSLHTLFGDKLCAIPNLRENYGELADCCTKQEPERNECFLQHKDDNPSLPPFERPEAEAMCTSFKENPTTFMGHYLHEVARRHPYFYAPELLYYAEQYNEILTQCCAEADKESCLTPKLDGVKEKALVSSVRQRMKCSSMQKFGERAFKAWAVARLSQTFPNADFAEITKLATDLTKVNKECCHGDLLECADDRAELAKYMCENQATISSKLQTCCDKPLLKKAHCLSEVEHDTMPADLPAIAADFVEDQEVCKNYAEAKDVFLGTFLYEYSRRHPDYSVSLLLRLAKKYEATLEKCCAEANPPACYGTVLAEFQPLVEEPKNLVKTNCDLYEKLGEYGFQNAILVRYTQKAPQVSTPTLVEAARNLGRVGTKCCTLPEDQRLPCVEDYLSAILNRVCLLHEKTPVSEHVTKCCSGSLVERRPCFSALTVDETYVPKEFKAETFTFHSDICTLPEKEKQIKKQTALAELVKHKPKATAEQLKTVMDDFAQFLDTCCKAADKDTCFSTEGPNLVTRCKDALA

B1: R28 sdAb (VHH)
VHH: QVQLVESGGGLVQAGGSLRLSCVASGRTFIAYAMGWFRQAPGKEREFVAAITNFAGGTTYYADSVKGRFTISRDNAKTTVYLQMNSLKPEDTALYYCAADRSAQTMRQVRPVLPYWGQGTQVTVSS
notes: also called R28 VHH
One may read the Kd as the equilibrium constant for the complex coming apart. Lower therefore signals higher affinity. Take B1: the Kd with human serum albumin [1] was 1.8 nM; with rhesus serum albumin [2], 6 nM; with rat serum albumin [3] it was 0.3 nM; in the experiment with human serum albumin [4] it was 12 nM; with rhesus serum albumin [5] it was 38 nM; in the experiment with rat serum albumin [6], 0.4 nM. The Kd in the experiment with mouse serum albumin [7] stood at 160 nM; with human serum albumin [8], 1.8 nM; with rhesus serum albumin [9], 5.9 nM; with rat serum albumin [10] it was 0.3 nM; with human serum albumin [11], 12.1 nM; with rhesus serum albumin [12], 38.2 nM. Besides, in the experiment with rat serum albumin [13], the affinity, expressed as Kd, was 0.4 nM.

B2: M79 sdAb (VHH)
VHH: QVKLEESGGGLVQAGGSLKLSCAASGSTFSSSSVGWYRQAPGQQRELVAAITSGGSTNTADSVKGRFTMSRDNAKNTVYLQMRDLKPEDTAVYYCNVAGRNWVPISRYSPGPYWGQGTQVTVSS
notes: also called M79 VHH
Regarding B2, the Kd with mouse serum albumin [14] amounted to 406 nM; with human serum albumin [1], 7 nM; with rhesus serum albumin [2] it was 2 nM; with rat serum albumin [3], 7 nM; with human serum albumin [4], 122 nM; with rhesus serum albumin [5], 85 nM. Besides, the Kd was found to be 13 nM in the experiment with rat serum albumin [6]; 7.1 nM with human serum albumin [8]; 2 nM with rhesus serum albumin [9]; 7.1 nM with rat serum albumin [10]; 122 nM in the experiment with human serum albumin [11]; 84.6 nM with rhesus serum albumin [12]. In addition, the affinity with rat serum albumin [13], expressed as Kd, was 12.6 nM.

B3: M75 sdAb (VHH)
VHH: QVQLVESGGGFVQAGGSLRLSCAASGRTFDNYVMAWFRQAPGKEREFVASISGSGSITNYANSVKDRFTISRDSAKNAIYLQMNSLKPEDTALYYCAAGSRRTYYREPKFYPSWGQGTQVTVSS
notes: also called M75 VHH
On to B3, for which the Kd came to 735 nM with human serum albumin [1]; 1.2 nM in the experiment with human serum albumin [4]; 2.9 nM in the experiment with rhesus serum albumin [5]; 315 nM with rat serum albumin [6]; 510 nM with mouse serum albumin [7]; 735 nM with human serum albumin [8]. In the experiment with human serum albumin [11], this molecule gave a Kd of 1.2 nM. For the same molecule, the binding result with HSA domain 2 (DII) is “no binding (tested: 100 nM)”.

B4: R11-H4 (VHH)
VHH: QVQLVESGGGLVQPGGSLRLSCAASGFLLRSNTMGWYRQAPGKERELVAFIRPSGLTNYNDAVQGRFTISRDNSKNTLYLQMNSLRAEDTAVYYCHTRPPFQRDSWGQGTLVTVSS
In the case of B4, the binding result in the experiment with human serum albumin [15], with rhesus serum albumin [16] and in the experiment with rat serum albumin [17] was “binds” in each case.

B5: R11 sdAb (VHH)
VHH: QVKLEESGGGLVQAGGSLRLSCVGPGFLLRSNTMGWYRQAPGKERELVAFIRPSGLTNYNDAVQGRFTISRDNAKNTVYLQMNALKPEDTAVYYCHTRPPFQRDSWGQGTQVTVSS
notes: also called R11 VHH
B5: the Kd in the experiment with mouse serum albumin [14] amounted to 14 nM; in the experiment with human serum albumin [1], 29 nM; with rhesus serum albumin [2], 116 nM; with rat serum albumin [3] it was 30 nM; in the experiment with human serum albumin [4], 93 nM; with rhesus serum albumin [5] it was 159 nM. The Kd with rat serum albumin [6] amounted to 61.7 nM; in the experiment with human serum albumin [8], 28.9 nM; in the experiment with rhesus serum albumin [9], 116 nM; in the experiment with rat serum albumin [10], 29.9 nM; with human serum albumin [11], 93.1 nM; in the experiment with rhesus serum albumin [12], 159 nM. The molecule further returned a Kd with rat serum albumin [13] of 61.7 nM.

B6: R11-H3 (VHH)
VHH: EVQLVESGGGLVQPGGSLRLSCAASGFLLRSNTMGWYRQAPGKERELVSFIRPSGLTNYNDAVQGRFTISRDNSKNTLYLQMNSLRAEDTAVYYCHTRPPFQRDSWGQGTLVTVSS
Take B6: the binding result in the experiment with human serum albumin [15] and with rat serum albumin [17] was “binds” throughout.
